# According to IntAct's records for PubMed 24125847:
# B1: Sarcoplasmic reticulum histidine-rich calcium-binding protein (Homo sapiens), P23327 (parent)
# chain: MGHHRPWLHASVLWAGVASLLLPPAMTQQLRGDGLGFRNRNNSTGVAGLSEEASAELRHHLHSPRDHPDENKDVSTENGHHFWSHPDREKEDEDVSKEYGHLLPGHRSQDHKVGDEGVSGEEVFAEHGGQARGHRGHGSEDTEDSAEHRHHLPSHRSHSHQDEDEDEVVSSEHHHHILRHGHRGHDGEDDEGEEEEEEEEEEEEASTEYGHQAHRHRGHGSEEDEDVSDGHHHHGPSHRHQGHEEDDDDDDDDDDDDDDDDVSIEYRHQAHRHQGHGIEEDEDVSDGHHHRDPSHRHRSHEEDDNDDDDVSTEYGHQAHRHQDHRKEEVEAVSGEHHHHVPDHRHQGHRDEEEDEDVSTERWHQGPQHVHHGLVDEEEEEEEITVQFGHYVASHQPRGHKSDEEDFQDEYKTEVPHHHHHRVPREEDEEVSAELGHQAPSHRQSHQDEETGHGQRGSIKEMSHHPPGHTVVKDRSHLRKDDSEEEKEKEEDPGSHEEDDESSEQGEKGTHHGSRDQEDEEDEEEGHGLSLNQEEEEEEDKEEEEEEEDEERREERAEVGAPLSPDHSEEEEEEEEGLEEDEPRFTIIPNPLDRREEAGGASSEEESGEDTGPQDAQEYGNYQPGSLCGYCSFCNRCTECESCHCDEENMGEHCDQCQHCQFCYLCPLVCETVCAPGSYVDYFSSSLYQALADMLETPEP
# partner: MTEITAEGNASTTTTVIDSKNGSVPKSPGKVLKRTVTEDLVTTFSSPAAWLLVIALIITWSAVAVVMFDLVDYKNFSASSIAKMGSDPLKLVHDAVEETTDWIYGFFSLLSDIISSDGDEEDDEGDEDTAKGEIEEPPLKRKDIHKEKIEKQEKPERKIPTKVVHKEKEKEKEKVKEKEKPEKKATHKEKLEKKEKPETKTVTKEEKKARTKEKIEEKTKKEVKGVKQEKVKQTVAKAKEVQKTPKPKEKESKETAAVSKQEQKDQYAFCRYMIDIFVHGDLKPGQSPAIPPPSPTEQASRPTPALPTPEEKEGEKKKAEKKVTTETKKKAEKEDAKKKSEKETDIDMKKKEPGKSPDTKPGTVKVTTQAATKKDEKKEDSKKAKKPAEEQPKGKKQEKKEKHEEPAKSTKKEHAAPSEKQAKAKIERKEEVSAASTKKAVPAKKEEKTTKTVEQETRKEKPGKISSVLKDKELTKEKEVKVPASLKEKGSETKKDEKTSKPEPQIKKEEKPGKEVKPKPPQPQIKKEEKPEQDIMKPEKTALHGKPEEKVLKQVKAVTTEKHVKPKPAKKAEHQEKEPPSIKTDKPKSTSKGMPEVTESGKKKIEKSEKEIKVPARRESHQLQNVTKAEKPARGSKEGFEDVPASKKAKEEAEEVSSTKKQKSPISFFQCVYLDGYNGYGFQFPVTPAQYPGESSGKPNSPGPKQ
# B2: Sarcoplasmic reticulum histidine-rich calcium-binding protein (Homo sapiens), P23327 (parent)
# chain: B1 chain
# partner: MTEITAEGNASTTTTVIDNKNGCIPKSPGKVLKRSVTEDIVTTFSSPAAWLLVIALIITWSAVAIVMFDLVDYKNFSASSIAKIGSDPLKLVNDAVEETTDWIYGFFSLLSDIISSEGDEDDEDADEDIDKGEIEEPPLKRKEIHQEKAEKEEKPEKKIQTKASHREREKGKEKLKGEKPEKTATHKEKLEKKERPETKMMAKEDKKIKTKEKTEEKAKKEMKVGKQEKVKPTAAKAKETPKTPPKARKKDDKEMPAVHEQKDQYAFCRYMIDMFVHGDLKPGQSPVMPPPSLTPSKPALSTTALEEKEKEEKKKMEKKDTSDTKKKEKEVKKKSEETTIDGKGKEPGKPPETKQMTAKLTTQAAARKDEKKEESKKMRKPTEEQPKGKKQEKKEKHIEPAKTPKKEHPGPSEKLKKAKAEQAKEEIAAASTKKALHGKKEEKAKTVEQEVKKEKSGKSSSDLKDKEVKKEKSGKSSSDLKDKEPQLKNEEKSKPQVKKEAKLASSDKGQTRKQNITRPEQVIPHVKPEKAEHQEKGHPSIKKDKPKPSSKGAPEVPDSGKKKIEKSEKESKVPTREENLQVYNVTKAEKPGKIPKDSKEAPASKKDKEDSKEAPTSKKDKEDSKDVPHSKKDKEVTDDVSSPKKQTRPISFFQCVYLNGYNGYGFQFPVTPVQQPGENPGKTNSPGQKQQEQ
# Variants of: B1
# Settings: with trdn_rabit TRDN
row,Variant,effect of a mutation on the interaction
1,S96A,decreasing interaction

# Variants of: B2
# Settings: with trdn_mouse Trdn
row,Variant,effect of a mutation on the interaction
1,S96A,decreasing interaction
